Results as given in the RNAGym collection of RNA variant scans (doi:10.7554/elife.90254).

B1: OR4K15 (parent)
chain: GUUAACGGUCAUAGGCCAUGGAAACUAGGAGCACCAUUUCGCUGCCAGUGAAGAAAUGAACAAAGAAAAUCUGGGCCAGGCAGGCAUCAAAAGAAAUAGUCUUGCGCUCAACCAGAAAGUCUGUAAUCAUUUUAAGGGUA

Variants of: B1
Assay: self-cleavage, relative activity (ratio to wild type); higher = more cleavage; in vitro, sequencing; the parent is a self-cleaving ribozyme

In order of falling self-cleavage:
1. U87C U100C  2.72
2. A86U U100C  2.52
3. G84A A96U  2.46
4. A89U A117G  2.46
5. G84A A96G  2.43
6. A86G A135U  2.39
7. A89C A96G  2.38
8. A86G U102C  2.36
9. A86U A129G  2.26
10. A86G A94U  2.2
11. A89G A91U  2.19
12. A89G A98U  2.15
13. A86G U133C  2.05
14. A82G U103C  2.05
15. A89G U100G  2.03
16. G84A U102A  2.02
17. U87A G137A  1.96
18. A89G A95G  1.87
19. A86G G137A  1.83
20. U87C A96G  1.81
21. U87C G123A  1.78
22. A86U  1.77
23. A86U U122C  1.74
24. G83A U120C  1.74
25. U87A U122A  1.73
26. G84A A86G  1.73
27. A86U A94G  1.72
28. U87C U133G  1.67
29. U87A A126G  1.66
30. A89U  1.65
31. U87A A94G  1.64
32. U87C G123C  1.6
33. A86U A117U  1.56
34. A89C  1.54
35. A86U U87C  1.51
36. C88A A94G  1.5
37. U87C A96U  1.48
38. A86G A118G  1.45
39. A86G A89G  1.42
40. G83A A118G  1.41
41. A89G A94G  1.39
42. A86G A96U  1.37
43. U87C A95G  1.35
44. A86C A95G  1.34
45. G84A U102G  1.29
46. U87A U120C  1.28
47. G83A U131C  1.28
48. U87A U122C  1.28
49. A89G A96U  1.27
50. A86G A134G  1.25
51. U87A U133G  1.25
52. C85U A96G  1.24
53. A86C  1.22
54. G83A A117U  1.21
55. A86G  1.16
56. A89C A134G  1.16
57. A89G G99A  1.15
58. U87C A129G  1.14
59. A86U A129U  1.13
60. A86G A90G  1.13
61. U87A A117G  1.12
62. A89G  1.11
63. A86U U120C  1.11
64. U87A U133C  1.05
65. C85G A96G  1.02
66. U87A A89C  0.99
67. U87C U120A  0.99
68. U87C A90C  0.98
69. U87C U103C  0.95
70. A86G U103A  0.93
71. U87C U132C  0.92
72. A82G U132A  0.91
73. U87C A118U  0.9
74. A86C U132C  0.9
75. A89G U97A  0.88
76. A89G A94U  0.86
77. U87C U102A  0.83
78. A89G A96G  0.83
79. U87G A90G  0.82
80. U87A A129C  0.8
81. U87G A140G  0.8
82. A89C U103C  0.8
83. U87C A118G  0.75
84. U87C A129U  0.73
85. C85A A125G  0.72
86. A86G A96G  0.71
87. A89G A116G  0.7
88. A89U A117U  0.7
89. U87G U122C  0.68
90. A86G A89C  0.67
91. C85U U120G  0.64
92. A82G U127A  0.58
93. A86G A129U  0.57
94. A86G A118U  0.52
95. A82U A95G  0.51
96. A82U U100C  0.5
97. A89G U100A  0.5
98. A82G G138A  0.49
99. A86G A114G  0.48
100. A89U A116U  0.46
101. A86G U103C  0.45
102. G83A U102C  0.44
103. U87C C109U  0.43
104. U87C A114G  0.43
105. A82G A126C  0.41
106. A86G U102G  0.39
107. A82G U139C  0.39
108. G83U U102C  0.35
109. A86G U120C  0.35
110. A82U U97A  0.34
111. G84C A89G  0.34
112. A82G C128U  0.33
113. U87C A95C  0.32
114. A82G U124A  0.32
115. A89G A116U  0.31
116. A89G U131A  0.3
117. U87C A90G  0.3
118. A82U A117G  0.28
119. U87C U102G  0.27
120. A82G A116G  0.26
121. A86C C109U  0.25
122. U87A A110C  0.25
123. A82U U131C  0.24
124. A82U A117U  0.23
125. A82U U87C  0.22
126. A82G A129U  0.22
127. A82U A92G  0.22
128. U87C U120C  0.21
129. C85A C109A  0.19
130. U87C U100A  0.18
131. A82C G119A  0.17
132. A82U G138A  0.17
133. U87C A116U  0.17
134. C85U A116U  0.17
135. A82C A135G  0.15
136. U87A A110G  0.15
137. U87G A126C  0.12
138. A89G A110G  0.12
139. A82U A95C  0.12
140. A82C A98G  0.09
141. A86U C101A  0.09
142. A82U U133C  0.07
143. A82C C109U  0.07
144. A82G A110G  0.07
145. U87G A125G  0.07
146. A82U U131A  0.07
147. A86G A114C  0.06
148. A82U U97C  0.06
149. G83U A110G  0.06
150. G84C A114G  0.05
151. A82U C101U  0.04
152. A82U A111U  0.04
153. A82U A117C  0.04
154. A86G A114U  0.03
155. A86G G104A  0.02
156. A86U U108C  0.02
157. G83U U108C  0.02
158. A82C C105U  0.02
159. A89G U108A  0.02
160. A89G U108C  0.02
161. A86U C112U  0.02
162. G84C A111G  0.02
163. A86G U108C  0.02
164. U87C U103G  0.01
165. A82G G106A  0.01
166. A82G G106C  0.01
167. A89G U108G  0.01
